From patent US9345682B2, “Inhibition of STAT3 signal transduction for human cancer therapy” (University of South Florida, priority 1999, dated 2016)
Non-standard residues stand in square brackets, D forms with d. No end group written: not given here. pY = N[C@@H](Cc1ccc(OP(=O)(O)O)cc1)C(=O)O

B1: rIL-12: recombinant IL-12 (Genetics Institute) (protein, UniProt P29459 23-219; P29460 23-328, looked up)
Interleukin-12 subunit alpha: RNLPVATPDPGMFPCLHHSQNLLRAVSNMLQKARQTLEFYPCTSEEIDHEDITKDKTSTVEACLPLELTKNESCLNSRETSFITNGSCLASRKTSFMMALCLSSIYEDLKMYQVEFKTMNAKLLMDPKRQIFLDQNMLAVIDELMQALNFNSETVPQKSSLEEPDFYKTKIKLCILLHAFRIRAVTIDRVMSYLNAS
Interleukin-12 subunit beta: IWELKKDVYVVELDWYPDAPGEMVVLTCDTPEEDGITWTLDQSSEVLGSGKTLTIQVKEFGDAGQYTCHKGGEVLSHSLLLLHKKEDGIWSTDILKDQKEPKNKTFLRCEAKNYSGRFTCWWLTTISTDLTFSVKSSRGSSDPQGVTCGAATLSAERVRGDNKEYEYSVECQEDSACPAAEESLPIEVMVDAVHKLKYENYTSSFFIRDIIKPDPPKNLQLKPLKNSRQVEVSWEYPDTWSTPHSYFSLTFCVQVQGKSKREKKDRVFTDKTSATVICRKNASISVRAQDRYYSSSWSEWASVPCS
B2: Fas ligand: Fas ligand (Alexis) (protein, UniProt P48023 130-281, looked up)
Tumor necrosis factor ligand …: QIGHPSPPPEKKELRKVAHLTGKSNSRSMPLEWEDTYGIVLLSGVKYKKGGLVINETGLYFVYSKVYFRGQSCNNLPLSHKVYMRNSKYPQDLVMMEGKMMSYCTTGQMWARSSYLGAVFNLTSADHLYVNVSELSLVNFEESQTFFGLYKL

Key:
[1] = test system: Bcl-xL overexpressing U266 cells; assay: Drug-induced apoptosis in U266 cells overexpressing Bcl-xL; format: cell-based, human; settings: stable U266 clones overexpressing Bcl-xL; 24 h for melphalan and mitoxantrone
Description: FIG. 23 Enforced Overexpression of Bcl-x Confers Resistance to Chemotherapy. Panel A: U266 cells are transfected with a CMV expression vector encoding Bcl-x, tagged with the FLAG epitope. Several stable, independent clones overexpressing Bcl-xL, as well as empty vector controls (Neo), are isolated and analyzed by Western blot with antibodies to Bcl-xL, or the FLAG epitope tag. B: The indicated cell lines are incubated with either melphalan (LPAM) or mitoxantrone for 24 h, and apoptosis is monitored by AnnexinV-FITC staining and flow cytometry. Overexpression of Bcl-xL protects the cells from chemotherapy-induced apoptosis.
These Bcl-xL overexpressing cells are resistant to apoptosis induced by AG490, as predicted since the ectopic Bcl-xL is expressed from a CMV promoter and is thus independent of JAK-STAT signaling. […] These findings support one embodiment of the present invention, that Bcl-x confers resistance to chemotherapy-induced apoptosis, and therefore that inhibition of STAT3 signaling promotes chemotherapy-induced apoptosis.

Full length STAT3 = target: T1, Full length STAT3 (Homo sapiens, UniProt P40763); assay: Phage display panning, 12-mer peptide library, on full-length GST-Stat3; format: binding
T1 construct: Full-length GST-Stat3, immobilized to glutathione-Sepharose beads, is used to screen a display peptide library; made in house; host or cells: E. coli
T1 sequence (P40763 whole entry, species assumed): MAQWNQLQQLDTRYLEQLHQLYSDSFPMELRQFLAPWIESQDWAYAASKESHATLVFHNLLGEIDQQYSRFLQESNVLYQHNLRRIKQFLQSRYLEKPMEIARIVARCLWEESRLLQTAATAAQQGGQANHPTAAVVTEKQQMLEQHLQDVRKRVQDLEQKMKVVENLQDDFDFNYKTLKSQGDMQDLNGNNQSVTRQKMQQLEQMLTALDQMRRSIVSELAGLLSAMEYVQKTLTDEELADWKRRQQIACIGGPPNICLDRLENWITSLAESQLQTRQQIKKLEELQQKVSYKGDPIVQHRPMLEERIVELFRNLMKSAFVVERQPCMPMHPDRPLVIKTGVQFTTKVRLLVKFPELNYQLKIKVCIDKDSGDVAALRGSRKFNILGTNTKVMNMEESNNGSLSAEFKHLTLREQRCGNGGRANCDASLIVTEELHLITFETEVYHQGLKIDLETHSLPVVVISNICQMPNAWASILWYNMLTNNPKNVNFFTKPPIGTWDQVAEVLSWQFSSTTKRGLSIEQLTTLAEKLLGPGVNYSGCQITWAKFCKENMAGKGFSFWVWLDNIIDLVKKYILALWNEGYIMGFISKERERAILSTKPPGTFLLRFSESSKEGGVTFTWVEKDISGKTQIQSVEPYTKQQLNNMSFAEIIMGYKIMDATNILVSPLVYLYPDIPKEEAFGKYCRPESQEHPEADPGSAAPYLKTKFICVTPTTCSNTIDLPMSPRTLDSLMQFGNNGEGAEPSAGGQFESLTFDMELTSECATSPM
Text: Phage display peptide libraries are used because of two powerful features. First, phage libraries generate an enormous diversity of peptides that can be subjected to affinity selection by panning. […] These combinatorial libraries are based on random short peptide sequences fused to a coat protein of bacteriophage, herein pIII of the filamentous coliphage MI3. Panning of the peptide library using an immobilized target, herein STAT3 fusion proteins bound onto beads, is used to select for peptide sequences that bind to STAT3. […] Peptide sequences that occur at elevated frequencies are good candidates for ST4T3-specific binding peptides. […] These cyclic peptides have the advantage of reducing entropic freedom, thereby potentially increasing binding specificity and affinity relative to linear peptides. Another variation on this approach is to combine “affinity maturation” with the phage display peptide library [Scott & Smith, 1990, Science, 249:386-390].
The GST-Stat3 fusion protein is purified on glutathione-Sepharose beads according to standard methods. The first library screened is obtained from a commercial source (New England Biolabs) and consists of random 12 amino acid sequences with a complexity of 1.9×10^9 independent transformants, each theoretically represented approximately 70 times in 1.4×10^11 phage particles. […] This is due to the inability of peptidases to cleave adjacent to proline residues in the peptide leader sequence, which is required for secretion. The titer of the original phage library after one round of amplification is 1.4×10^13 pfu/ml (plaque forming units per ml).
For panning phage with the STAT3 fusion protein, 50 ul of glutathione-Sepharose beads bound to purified GST-Stat3 fusion protein are washed with phosphate buffered saline (PBS). The beads are then incubated with 10 ul of phage suspension (1.4×10^11 virions) in 200 ul final volume of PBS for 30 min at room temperature with occasional mixing. The beads are gently pelleted in a microcentrifuge, and washed 10 times with 1 ml of PBS to remove unbound phage. Background of non-specifically bound phage is reduced by a variety of methods, including pre-blocking the beads with bovine serum albumin, pre-clearing the phage library with GST-glutathione-Sepharose beads, and washing the beads with increasing salt concentrations. Bound phage virions are eluted from the beads by incubation with a molar excess of glutathione for 30 min at room temperature. A small aliquot of the phage eluate is titered and the rest is amplified on the E. coli ER2537 host strain. Following amplification, the phage are purified by polyethylene glycol (PEG) precipitation and then the titer is determined again. Using 1-2×10^11 phage particles from the amplified eluate as input, the above binding and amplification steps are repeated a total of 3 to 4 times. After the final titering step, 40-100 isolated plaques are amplified for DNA sequencing to identify a consensus binding sequence. Sequence analysis is performed by automated sequencing on a Pharmacia ALF sequencer.
Full-length GST-Stat3, immobilized to glutathione-Sepharose beads, is used to screen a display peptide library containing 1.9×10^9 random 12-mer peptides positioned at the N-terminus of a minor coat protein (pIII) of the M13 filamentous bacteriophage. Based on their frequencies shown in Table 1, the five most promising peptides from a 12-mer peptide library that bind to full-length STAT3 are listed.

STAT3 = target: T2, STAT3 (Homo sapiens, UniProt P40763); assay: Disruption of STAT3 DNA-binding activity in vitro by synthetic peptides; settings: ne = no effect
T2 construct: made in house; host or cells: Sf9 insect cells co-infected with baculoviruses for STAT3 and Src or Fes (cell extracts)
T2 sequence (P40763 whole entry, species assumed): as above
Text: A novel non-radioactive, 96-well plate based assay is used for measuring STAT3 DNA-binding activity (FIG. 30). In this high throughput assay, a biotinylated hSIE probe is used in place of the ^32P-labeled hSIE probe used for EMSA to detect binding of STAT3 dimers. The hSIE oligonucleotide is a high-affinity mutant of the original sis-inducible element in the C-fos gene promoter that binds STAT3. The biotinylated hSIE probe is immobilized onto a streptavidin-coated 96-well plate, permitting a large number of compounds and concentrations to be tested in a single experiment. The source of activated STAT3 is extracts derived from Sf9 insect cells co-infected with baculoviruses encoding STAT3 and either the Src or Fes tyrosine kinases. Using this baculovirus expression system, high levels of activated STAT3 dimers are produced as a result of phosphorylation by the co-expressed tyrosine kinases. Activated STAT3 is added to the 96-well plate in the presence or absence of the compounds to be screened. After incubation for 30 min with compounds, STAT3 dimers that bind to the biotinylated hSIE probe are detected with an anti-Stat3 primary antibody (Santa Cruz Biotechnology) followed by a horseradish-peroxidase conjugated secondary antibody. Immune complexes are detected by colorimetric conversion of the substrate, 3,3′,5,5′-tetramethylbenzidine (TMB) peroxidase, using a conventional ELISA plate reader. Epitope tagged versions of STAT3 expressed from baculoviruses have also been generated that are detected using the cognate primary antibodies. We find these anti-tag antibodies to be more sensitive and/or specific.
To facilitate these high throughput, 96-well plate assays, the screening is automated using an available Beckman 2000 Biotek robotics workstation coupled to an ELISA plate reader. The computer-programmed robotics workstation has multi-volume, multi-component mixing capability that greatly accelerates all of the high throughput assays. Inhibition of STAT3 DNA-binding activity in this assay is readily detected as a loss of signal relative to the controls without added compound. As a positive control and to establish the DNA-binding specificity, activated STAT3 is added in the presence of either excess free hSIE oligonucleotide for competition or a non-binding oligonucleotide, FIRE. […] As a negative control, extracts from IFNa-stimulated cells are used as a source of STAT1, which also binds the hSIE. Initial screens are performed at high concentrations of compounds (e.g., 100 uM), and active compounds are further tested in concentration-response studies.
A total of 19 synthetic peptides are tested based on the PY*LKTK sequence (Y*=phosphotyrosine) and their IC50 is determined in terms of disruption of STAT3 DNA-binding activity in vitro (Table 3).

MPC11 tumors = assay: MPC11 myeloma tumor growth in vivo; set-up: species or system BALB/c mice; settings: MPC11 tumor-bearing mice, rIL-12 alone, 200 ng every second day
Description: Mice and tumor formation in vivo. Six- to eight-week old female BALB/c mice are obtained from the National Cancer Institute (Frederick, Md.). Cohorts of 3-5 mice per group are used for these experiments. Mice are shaved on the right flank and injected subcutaneously (s.c.) with 5×10^5 of either MOPC or MPC11 cells in […] of PBS to induce tumors.
In vivo treatment with AG-490 and IL-12. When tumors reach about 5 […] in diameter, AG-490 treatment of tumors is initiated and continued daily for 7-10 days. For MOPC tumors, injections of 0.85 mg/day of AG-490 are given intratumorally, supplemented with 0.5 mg/day of AG-490 i.p. For MPC11 tumors, the intratumoral treatment is halved while the i.p. dose remains the same. Control mice receive 50% DMSO vehicle alone in the same volume as the AG-490 treatment group. Recombinant IL-12 is given s.c. at either 100 ng or 200 ng every other day. Tumor growth is monitored daily by measuring two perpendicular tumor diameters with a caliper, and tumor volume was calculated according to the formula V=0.52*a*b(a+b)/2 (a=smallest superficial diameter; b=largest superficial diameter).

U266 cells = assay: Fas-mediated apoptosis (Annexin V, flow cytometry) in U266 cells; format: cell-based, human; settings: 500 ng/ml CH-11 or 100 ng/ml Fas ligand
Description: For surface detection of the Fas receptor, 10^6 cells are suspended in […] PBS with 2.5 mg/ml mouse IgM (Sigma) and […] UB2 antibody (MBL) or IgG1, isotype control serum (Dako). Following 30 min incubation at room temperature, cells are washed with PBS, and incubated in the dark for 30 min with goat anti-mouse Ig-FITC. Fluorescence is measured on a FACScan flow cytometer and analyzed using CellQuest software (Becton Dickinson). For cell cycle analysis, 10^6 cells are fixed in ice-cold ethanol for a minimum of 2 h, washed with PBS, and stained with 5 mg/ml propidium iodide (PI) and […] at 37° C. for 30 min prior to analysis by flow cytometry. […] Apoptosis is measured by staining with Annexin V-FITC (Clontech) and flow cytometry analysis. Fas-specific death is calculated as (% Annexin V positive cells in the CH-11 treated population)−(% Annexin V positive cells in the IgM control population). Programmed cell death in cells transfected with the bicistronic green fluorescent protein vectors (pIRES-EGFP or pIRES-Stat3b) is analyzed after staining with Annexin V-PE (Pharmingen) by two color flow cytometry analysis. Apoptotic morphology of DAPI-stained nuclei and green/red fluorescence is confirmed by fluorescence microscopy.

| Molecule | Frequency (out of 100 clones) (Full length STAT3) [%] | IC50, disruption of STAT3 DNA-binding activity (STAT3) | other results |
| --- | --- | --- | --- |
| N[C@@H](Cc1ccc(N(CCCl)CCCl)cc1)C(=O)O [melphalan] |  |  | apoptosis induced in Bcl-xL overexpressing cells [1]: resistant |
| O=C1c2c(O)ccc(O)c2C(=O)c2c(NCCNCCO)ccc(NCCNCCO)c21 [mitoxantrone] |  |  | apoptosis induced in Bcl-xL overexpressing cells [1]: resistant |
| FSYPLTRAPLNM (listed as Homo sapiens) | 8 |  |  |
| HY(S/P)PILVYQPSW | 25 |  |  |
| PFLKTK |  | ne |  |
| PY*AKTK (P[pY]AKTK; listed as Homo sapiens) [synthetic peptide, Y* = phosphotyrosine] |  | ne |  |
| PYLKTK [synthetic peptide, unphosphorylated] |  | ne |  |
| QDVHLTQQSRYT (listed as Homo sapiens) | 13 |  |  |
| SHPWNAQRELSV (listed as Homo sapiens) | 9 |  |  |
| Y*LK ([pY]-Leu-Lys; listed as Homo sapiens) [synthetic peptide, Y* = phosphotyrosine] |  | ne |  |
| YPAPQPLVTKTS (listed as Homo sapiens) | 8 |  |  |
| B1 |  |  | tumor growth (MPC11 tumors): only slightly inhibits |
| B2 |  |  | Fas-mediated cell death (U266 cells): completely resistant |
